Test results published in paper PMC4654587.

How the values were obtained:
[1] = target: His6-CsuA/B (N-terminal donor strand sequence replaced by a His6-tag); conditions: parent: est. 1.0; read off a plot
[2] = target: His-tagged EcpB (wild type) (Escherichia coli) (UniProt P77188); experiment: SEC

Row | Substance | ratio to parent [1] | stoichiometry N [2]
1 | CsuC (wild type, without tag) R89A | 0.15 | –
2 | EcpA with a Trp11Ala mutation (from UniProt P0AAA3 23-195) (natural protein) | – | 1
3 | CsuC (wild type, without tag) Y196F | 0.13 | –
4 | CsuC (wild type, without tag) R174A | 0.5 | –
5 | CsuC (wild type, without tag) R89A; Y196F | 0.02 | –
